# Assay results reported in the supplement of paper PMC5998384.
# Experiments:
# HeLa Kyoto [1] = assay: solubility in G1/S (NP-40 vs SDS abundance) (log2 ratio); higher = more soluble; conditions: cell cycle stage: G1/S
# HeLa Kyoto [2] = assay: solubility change mitosis vs G1/S (difference of NP-40 vs SDS log2 ratios) (log2 ratio difference); higher = more soluble in mitosis
# 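For solubility change mitosis vs G1/S (difference of NP-40 vs SDS log2 ratios) in this document: synchronized HeLa Kyoto cells (double thymidine block for G1/S, nocodazole release for mitosis), protein amounts in NP-40 versus SDS lysates quantified by mass spectrometry, three biological replicates.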
# 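For solubility in G1/S (NP-40 vs SDS abundance) in this document: HeLa Kyoto cells arrested at G1/S by double thymidine block, proteins quantified by TMT10plex mass spectrometry in mild NP-40 versus SDS extracts, three biological replicates.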
sequence,measurement,setting,value
MASSHSSSPVPQGSSSDVFFKIEVDPSKHIRPVPSLPDVCPKEPTGDSHSLYVAPSLVTDQHRWTVYHSKVNLPAALNDPRLAKRESDFFTKTWGLDFVDTEVIPSFYLPQISKEHFTVYQQEISQREKIHERCKNICPPKDTFERTLLHTHDKSRTDLEQVPKIFMKPDFALDDSLTFNSVLPWSHFNTAGGKGNRDAASSKLLQEKLSHYLDIVEVNIAHQISLRSEAFFHAMTSQHELQDYLRKTSQAVKMLRDKIAQIDKVMCEGSLHILRLALTRNNCVKVYNKLKLMATVHQTQPTVQVLLSTSEFVGALDLIATTQEVLQQELQGIHSFRHLGSQLCELEKLIDKMMIAEFSTYSHSDLNRPLEDDCQVLEEERLISLVFGLLKQRKLNFLEIYGEKMVITAKNIIKQCVINKVSQTEEIDTDVVVKLADQMRMLNFPQWFDLLKDIFSKFTIFLQRVKATLNIIHSVVLSVLDKNQRTRELEEISQQKNAAKDNSLDTEVAYLIHEGMFISDAFGEGELTPIAVDTTSQRNASPNSEPCSSDSVSEPECTTDSSSSKEHTSSSAIPGGVDIMVSEDMKLTDSELGKLANNIQELLYSASDICHDRAVKFLMSRAKDGFLEKLNSMEFITLSRLMETFILDTEQICGRKSTSLLGALQSQAIKFVNRFHEERKTKLSLLLDNERWKQADVPAEFQDLVDSLSDGKIALPEKKSGATEERKPAEVLIVEGQQYAVVGTVLLLIRIILEYCQCVDNIPSVTTDMLTRLSDLLKYFNSRSCQLVLGAGALQVVGLKTITTKNLALSSRCLQLIVHYIPVIRAHFEARLPPKQYSMLRHFDHITKDYHDHIAEISAKLVAIMDSLFDKLLSKYEVKAPVPSACFRNICKQMTKMHEAIFDLLPEEQTQMLFLRINASYKLHLKKQLSHLNVINDGGPQNGLVTADVAFYTGNLQALKGLKDLDLNMAEIWEQKR [VPS54],solubility in G1/S (log2),HeLa Kyoto [1],-0.136
same,solubility change mitosis (log2),HeLa Kyoto [2],0.126
MASSLLAGERLVRALGPGGELEPERLPRKLRAELEAALGKKHKGGDSSSGPQRLVSFRLIRDLHQHLRERDSKLYLHELLEGSEIYLPEVVKPPRNPELVARLEKIKIQLANEEYKRITRNVTCQDTRHGGTLSDLGKQVRSLKALVITIFNFIVTVVAAFVCTYLGSQYIFTEMASRVLAALIVASVVGLAELYVMVRAMEGELGEL [TMEM199],solubility in G1/S (log2),HeLa Kyoto [1],-0.349
same,solubility change mitosis (log2),HeLa Kyoto [2],-0.0986
MASTRSIELEHFEERDKRPRPGSRRGAPSSSGGSSSSGPKGNGLIPSPAHSAHCSFYRTRTLQALSSEKKAKKARFYRNGDRYFKGLVFAISSDRFRSFDALLIELTRSLSDNVNLPQGVRTIYTIDGSRKVTSLDELLEGESYVCASNEPFRKVDYTKNINPNWSVNIKGGTSRALAAASSVKSEVKESKDFIKPKLVTVIRSGVKPRKAVRILLNKKTAHSFEQVLTDITEAIKLDSGVVKRLCTLDGKQVTCLQDFFGDDDVFIACGPEKFRYAQDDFVLDHSECRVLKSSYSRSSAVKYSGSKSPGPSRRSKSPASVNGTPSSQLSTPKSTKSSSSSPTSPGSFRGLKQISAHGRSSSNVNGGPELDRCISPEGVNGNRCSESSTLLEKYKIGKVIGDGNFAVVKECIDRSTGKEFALKIIDKAKCCGKEHLIENEVSILRRVKHPNIIMLVEEMETATELFLVMELVKGGDLFDAITSSTKYTERDGSAMVYNLANALRYLHGLSIVHRDIKPENLLVCEYPDGTKSLKLGDFGLATVVEGPLYTVCGTPTYVAPEIIAETGYGLKVDIWAAGVITYILLCGFPPFRSENNLQEDLFDQILAGKLEFPAPYWDNITDSAKELISQMLQVNVEARCTAGQILSHPWVSDDASQENNMQAEVTGKLKQHFNNALPKQNSTTTGVSVIMNTALDKEGQIFCSKHCQDSGRPGMEPISPVPPSVEEIPVPGEAVPAPTPPESPTPHPPPAAPGGERAGTWRRHRD [DCLK2],solubility in G1/S (log2),HeLa Kyoto [1],-0.0668
same,solubility change mitosis (log2),HeLa Kyoto [2],-0.0347
MATLIYVDKENGEPGTRVVAKDGLKLGSGPSIKALDGRSQVSTPRFGKTFDAPPALPKATRKALGTVNRATEKSVKTKGPLKQKQPSFSAKKMTEKTVKAKSSVPASDDAYPEIEKFFPFNPLDFESFDLPEEHQIAHLPLSGVPLMILDEERELEKLFQLGPPSPVKMPSPPWESNLLQSPSSILSTLDVELPPVCCDIDI [PTTG1],solubility in G1/S (log2),HeLa Kyoto [1],0.176
same,solubility change mitosis (log2),HeLa Kyoto [2],0.554
MATLWGGLLRLGSLLSLSCLALSVLLLAQLSDAAKNFEDVRCKCICPPYKENSGHIYNKNISQKDCDCLHVVEPMPVRGPDVEAYCLRCECKYEERSSVTIKVTIIIYLSILGLLLLYMVYLTLVEPILKRRLFGHAQLIQSDDDIGDHQPFANAHDVLARSRSRANVLNKVEYAQQRWKLQVQEQRKSVFDRHVVLS [TMEM9B],solubility in G1/S (log2),HeLa Kyoto [1],-0.235
same,solubility change mitosis (log2),HeLa Kyoto [2],-0.12
MAVAVGRPSNEELRNLSLSGHVGFDSLPDQLVNKSTSQGFCFNILCVGETGIGKSTLMDTLFNTKFESDPATHNEPGVRLKARSYELQESNVRLKLTIVDTVGFGDQINKDDSYKPIVEYIDAQFEAYLQEELKIKRSLFNYHDTRIHACLYFIAPTGHSLKSLDLVTMKKLDSKVNIIPIIAKADTIAKNELHKFKSKIMSELVSNGVQIYQFPTDEETVAEINATMSVHLPFAVVGSTEEVKIGNKMAKARQYPWGVVQVENENHCDFVKLREMLIRVNMEDLREQTHTRHYELYRRCKLEEMGFKDTDPDSKPFSLQETYEAKRNEFLGELQKKEEEMRQMFVMRVKEKEAELKEAEKELHEKFDLLKRTHQEEKKKVEDKKKELEEEVNNFQKKKAAAQLLQSQAQQSGAQQTKKDKDKKNASFT [SEPT11],solubility in G1/S (log2),HeLa Kyoto [1],-0.0512
same,solubility change mitosis (log2),HeLa Kyoto [2],0.12
MAVTKELLQMDLYALLGIEEKAADKEVKKAYRQKALSCHPDKNPDNPRAAELFHQLSQALEVLTDAAARAAYDKVRKAKKQAAERTQKLDEKRKKVKLDLEARERQAQAQESEEEEESRSTRTLEQEIERLREEGSRQLEEQQRLIREQIRQERDQRLRGKAENTEGQGTPKLKLKWKCKKEDESKGGYSKDVLLRLLQKYGEVLNLVLSSKKPGTAVVEFATVKAAELAVQNEVGLVDNPLKISWLEGQPQDAVGRSHSGLSKGSVLSERDYESLVMMRMRQAAERQQLIARMQQEDQEGPPT [DNAJC17],solubility in G1/S (log2),HeLa Kyoto [1],0.702
same,solubility change mitosis (log2),HeLa Kyoto [2],0.205
MCAQYCISFADVEKAHINIRDSIHLTPVLTSSILNQLTGRNLFFKCELFQKTGSFKIRGALNAVRSLVPDALERKPKAVVTHSSGNHGQALTYAAKLEGIPAYIVVPQTAPDCKKLAIQAYGASIVYCEPSDESRENVAKRVTEETEGIMVHPNQEPAVIAGQGTIALEVLNQVPLVDALVVPVGGGGMLAGIAITVKALKPSVKVYAAEPSNADDCYQSKLKGKLMPNLYPPETIADGVKSSIGLNTWPIIRDLVDDIFTVTEDEIKCATQLVWERMKLLIEPTAGVGVAAVLSQHFQTVSPEVKNICIVLSGGNVDLTSSITWVKQAERPASYQSVSV [SRR],solubility in G1/S (log2),HeLa Kyoto [1],0.0946
same,solubility change mitosis (log2),HeLa Kyoto [2],0.0667
MCDQQQIQCRLPLQQCCVKGPSFCSSQSPFAQSQVVVQAPCEMQIVDCPASCPVQVCQVSDQAPCQSQTTQVKCQSKTKQVKGQAQCQSKTTQVKGQAASQSQTSSVQSQAPCQSEVSYVQCEASQPVQTCFVECAPVCYTETCYVECPVQNYVPCPAPQPVQMYRGRPAVCQPQGRFSTQCQYQGSYSSCGPQFQSRATCNNYTPQFQLRPSYSSCFPQYRSRTSFSPCVPQCQTQGSYGSFTEQHRSRSTSRCLPPPRRLQLFPRSCSPPRRFEPCSSSYLPLRPSEGFPNYCTPPRRSEPIYNSRCPRRPISSCSQRRGPKCRIEISSPCCPRQVPPQRCPVEIPPIRRRSQSCGPQPSWGASCPELRPHVEPRPLPSFCPPRRLDQCPESPLQRCPPPAPRPRLRPEPCISLEPRPRPLPRQLSEPCLYPEPLPALRPTPRPVPLPRPGQCEIPEPRPCLQPCEHPEPCPRPEPIPLPAPCPSPEPCRETWRSPSPCWGPNPVPYPGDLGCHESSPHRLDTEAPYCGPSSYNQGQESGAGCGPGDVFPERRGQDGHGDQGNAFAGVKGEAKSAYF [KPRP],solubility in G1/S (log2),HeLa Kyoto [1],-1.06
same,solubility change mitosis (log2),HeLa Kyoto [2],1.12
MDDDKPFQPKNISKMAELFMECEEEELEPWQKKVEETQDEDDDELIFVGEISSSKPAISNILNRGHSSSSSKGIKSEPHSPGIPEIFRTASQRCRDPPSNPVAASPRFHLVSKSSQSSVTVENASKPDFTKNSQVGSDNSSILLFDSTQESLPPSQDIPAIFREGMKNTSYVLKHPSTSKVNSVTPKKPKTSEDVPQINPSTSLPLIGSPPVTSSQVMLSKGTNTSSPYDAGADYLRACPKCNVQFNLLDPLKYHMKHCCPDMITKFLGVIVKSERPCDEDKTDSETGKLIMLVNEFYYGRHEGVTEKEPKTYTTFKCFSCSKVLKNNIRFMNHMKHHLELEKQNNESWENHTTCQHCYRQYPTPFQLQCHIESTHTPHEFSTICKICELSFETEHILLQHMKDTHKPGEMPYVCQVCQFRSSTFSDVEAHFRAAHENTKNLLCPFCLKVSKMATPYMNHYMKHQKKGVHRCPKCRLQFLTSKEKAEHKAQHRTFIKPKELEGLPPGAKVTIRASLGPLQSKLPTAPFGCAPGTSFLQVTPPTSQNTTARNPRKSNASRSKTSKLHATTSTASKVNTSKPRGRIAKSKAKPSYKQKRQRNRKNKMSLALKNIRCRRGIHKCIECHSKIKDFASHFSIYIHCSFCKYNTNCNKAFVNHMMSSHSNHPGKRFCIFKKHSGTLRGITLVCLKCDFLADSSGLDRMAKHLSQRKTHTCQVIIENVSKSTSTSEPTTGCSLK [ZNF280C],solubility in G1/S (log2),HeLa Kyoto [1],-1.44
same,solubility change mitosis (log2),HeLa Kyoto [2],0.796
MDDDLMLALRLQEEWNLQEAERDHAQESLSLVDASWELVDPTPDLQALFVQFNDQFFWGQLEAVEVKWSVRMTLCAGICSYEGKGGMCSIRLSEPLLKLRPRKDLVETLLHEMIHAYLFVTNNDKDREGHGPEFCKHMHRINSLTGANITVYHTFHDEVDEYRRHWWRCNGPCQHRPPYYGYVKRATNREPSAHDYWWAEHQKTCGGTYIKIKEPENYSKKGKGKAKLGKEPVLAAENKDKPNRGEAQLVIPFSGKGYVLGETSNLPSPGKLITSHAINKTQDLLNQNHSANAVRPNSKIKVKFEQNGSSKNSHLVSPAVSNSHQNVLSNYFPRVSFANQKAFRGVNGSPRISVTVGNIPKNSVSSSSQRRVSSSKISLRNSSKVTESASVMPSQDVSGSEDTFPNKRPRLEDKTVFDNFFIKKEQIKSSGNDPKYSTTTAQNSSSSSSQSKMVNCPVCQNEVLESQINEHLDWCLEGDSIKVKSEESL [SPRTN],solubility in G1/S (log2),HeLa Kyoto [1],-0.206
same,solubility change mitosis (log2),HeLa Kyoto [2],0.0242
MDDSDTPTYYLQIEPQDGCHPGDSVERSVTCLPSASDENENQLDGDGHEHLTSSDSAMGKPQVSEQDSLNNNESCTLSCEVAAGENLQNTLCEASRDEQAFLGKDKKIPGKRSPRSKKGTAKKIPPGLFSGDIAPLMQEKVLSAVTYAVDDEEAAEVNANEQPEAPKLVLQSLFSLIRGEVEQLDSRALPLCLHQIAESYFQEEDYEKAMKFIQLERLYHEQLLANLSAIQEQWETKWKTVQPHTVTALRNSEKGFNGEDFERLTKICATHQDPLLSKHKIAAVEKSQERKCSTQLLVSEDPKEGGATTKESESKTCLGTESSKESQHTVEPLGSSPCCHQMDVQTDSPSLSVTAGKDHMEELLCSAEATLALHTQSSETAGSPSGPDSSEDACEDDSRLQLAQTEACQDVARIEGIAEDPKVFLSSKSKTEPLISPGCDRIPPALISEGKYSQAQRKELRLPLRDASEALPTDQLENNELNELQQPDLTDSDGKSPQAQADSDGSENVLCGNNQISDLGILLPEVCMAPEEKGDKDDQLNKETEDYLNSLLEGCLKDTEDSLSYEDNQDDDSDLLQDLSPEEASYSLQENLPSDESCLSLDDLAKRIEIAEVVPTEGLVSILKKRNDTVGDHPAQMQHKPSKRRVRFQEIDDSLDQDEVGGGSCILLVLLCIATVFLSVGGTALYCTFGDMESPVCTDFADNMDFYYTKLLQGVAELKHWIYLS [CNST],solubility in G1/S (log2),HeLa Kyoto [1],0.292
same,solubility change mitosis (log2),HeLa Kyoto [2],-0.0548
